According to patent publication US20030125296, “Insulin-responsive DNA binding protein-1 and methods to regulate insulin-responsive genes” (published 2003):

Experiments:
[1] = molecular target: T1, IRDBP-1 C-terminal 1503 bp coding region (Trx-IRDBP-1) (Rattus norvegicus, UniProt Q5ZQU0 SEQ:548-1047); experiment: competition; did not compete IGFBP-3 IRE band; settings: tags: His6-thioredoxin fusion (pET-32a)
From the text: (§1) This band was competed by the IGFBP-3 IRE, but not by the unrelated NFκB oligonucleotide (FIG. 26, left panel). In addition, the gel-shift band was supershifted with the anti-IRDBP-1 cAb antibody, but not with preimmune serum (FIG. 26, right panel).

[2] = molecular target: T1, IRDBP-1 C-terminal 1503 bp coding …; experiment: EMSA; self-competed; supershifted by anti-IRDBP-1 cAb; printed probe sequence from Example 7; settings: tags: His6-thioredoxin fusion (pET-32a)
From the text: as §1

T1 sequence (Q5ZQU0 904-1403): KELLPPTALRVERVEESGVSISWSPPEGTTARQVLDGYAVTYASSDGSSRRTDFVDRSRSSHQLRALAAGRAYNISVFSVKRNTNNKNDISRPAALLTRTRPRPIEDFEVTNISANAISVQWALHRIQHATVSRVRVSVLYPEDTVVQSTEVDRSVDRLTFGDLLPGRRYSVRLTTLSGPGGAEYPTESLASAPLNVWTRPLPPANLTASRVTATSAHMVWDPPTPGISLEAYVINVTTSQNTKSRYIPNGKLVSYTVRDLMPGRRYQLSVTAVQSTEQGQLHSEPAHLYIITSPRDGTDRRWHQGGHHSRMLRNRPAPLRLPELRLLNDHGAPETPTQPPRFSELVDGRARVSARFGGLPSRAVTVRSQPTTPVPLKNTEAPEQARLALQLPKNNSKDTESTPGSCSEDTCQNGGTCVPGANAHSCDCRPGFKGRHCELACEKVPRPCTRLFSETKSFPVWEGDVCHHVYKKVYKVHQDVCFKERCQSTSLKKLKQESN

B1: NFkB consensus (dsDNA)
DNA 1: GGGACTTTCCGGGACTTTCC
DNA 2: GGAAAGTCCCGGAAAGTCCC
[1]
  binding result: no binding

B2: IGFBP-3 IRE oligo (Example 7) (dsDNA)
DNA 1: AATTCAAGGGTATCCAGGAAAGTCTCCTTCAAG
DNA 2: CTTGAAGGAGACTTTCCTGGATACCCTTGAATT
[2]
  binding result: binds
